Experimental data taken from PMC11949052.

B1: C1-esterase inhibitor (C1-INH): N253A (protein)
parent chain: MASRLTLLTLLLLLLAGDRASSNPNATSSSSQDPESLQDRGEGKVATTVISKMLFVEPILEVSSLPTTNSTTNSATKITANTTDEPTTQPTTEPTTQPTIQPTQPTTQLPTDSPTQPTTGSFCPGPVTLCSDLESHSTEAVLGDALVDFSLKLYHAFSAMKKVETNMAFSPFSIASLLTQVLLGAGENTKTNLESILSYPKDFTCVHQALKGFTTKGVTSVSQIFHSPDLAIRDTFVNASRTLYSSSPRVLSNNSDANLELINTWVAKNTNNKISRLLDSLPSDTRLVLLNAIYLSAKWKTTFDPKKTRMEPFHFKNSVIKVPMMNSKKYPVAHFIDQTLKAKVGQLQLSHNLSLVILVPQNLKHRLEDMEQALSPSVFKAIMEKLEMSKFQPTLLTLPRIKVTTSQDMLSIMEKLEFFDFSYDLNLCGLTEDPDLQVSAMQHQTVLELTETGVEAAAASAISVARTLLVFEVQQPFLFVLWDQQHKFPVFMGRVYDPRA
B2: C1-esterase inhibitor (C1-INH): S255G (protein)
parent chain: MASRLTLLTLLLLLLAGDRASSNPNATSSSSQDPESLQDRGEGKVATTVISKMLFVEPILEVSSLPTTNSTTNSATKITANTTDEPTTQPTTEPTTQPTIQPTQPTTQLPTDSPTQPTTGSFCPGPVTLCSDLESHSTEAVLGDALVDFSLKLYHAFSAMKKVETNMAFSPFSIASLLTQVLLGAGENTKTNLESILSYPKDFTCVHQALKGFTTKGVTSVSQIFHSPDLAIRDTFVNASRTLYSSSPRVLSNNSDANLELINTWVAKNTNNKISRLLDSLPSDTRLVLLNAIYLSAKWKTTFDPKKTRMEPFHFKNSVIKVPMMNSKKYPVAHFIDQTLKAKVGQLQLSHNLSLVILVPQNLKHRLEDMEQALSPSVFKAIMEKLEMSKFQPTLLTLPRIKVTTSQDMLSIMEKLEFFDFSYDLNLCGLTEDPDLQVSAMQHQTVLELTETGVEAAAASAISVARTLLVFEVQQPFLFVLWDQQHKFPVFMGRVYDPRA
B3: C1-esterase inhibitor (C1-INH): N352A (protein)
parent chain: MASRLTLLTLLLLLLAGDRASSNPNATSSSSQDPESLQDRGEGKVATTVISKMLFVEPILEVSSLPTTNSTTNSATKITANTTDEPTTQPTTEPTTQPTIQPTQPTTQLPTDSPTQPTTGSFCPGPVTLCSDLESHSTEAVLGDALVDFSLKLYHAFSAMKKVETNMAFSPFSIASLLTQVLLGAGENTKTNLESILSYPKDFTCVHQALKGFTTKGVTSVSQIFHSPDLAIRDTFVNASRTLYSSSPRVLSNNSDANLELINTWVAKNTNNKISRLLDSLPSDTRLVLLNAIYLSAKWKTTFDPKKTRMEPFHFKNSVIKVPMMNSKKYPVAHFIDQTLKAKVGQLQLSHNLSLVILVPQNLKHRLEDMEQALSPSVFKAIMEKLEMSKFQPTLLTLPRIKVTTSQDMLSIMEKLEFFDFSYDLNLCGLTEDPDLQVSAMQHQTVLELTETGVEAAAASAISVARTLLVFEVQQPFLFVLWDQQHKFPVFMGRVYDPRA
B4: C1-esterase inhibitor (C1-INH): N352S (protein)
parent chain: MASRLTLLTLLLLLLAGDRASSNPNATSSSSQDPESLQDRGEGKVATTVISKMLFVEPILEVSSLPTTNSTTNSATKITANTTDEPTTQPTTEPTTQPTIQPTQPTTQLPTDSPTQPTTGSFCPGPVTLCSDLESHSTEAVLGDALVDFSLKLYHAFSAMKKVETNMAFSPFSIASLLTQVLLGAGENTKTNLESILSYPKDFTCVHQALKGFTTKGVTSVSQIFHSPDLAIRDTFVNASRTLYSSSPRVLSNNSDANLELINTWVAKNTNNKISRLLDSLPSDTRLVLLNAIYLSAKWKTTFDPKKTRMEPFHFKNSVIKVPMMNSKKYPVAHFIDQTLKAKVGQLQLSHNLSLVILVPQNLKHRLEDMEQALSPSVFKAIMEKLEMSKFQPTLLTLPRIKVTTSQDMLSIMEKLEFFDFSYDLNLCGLTEDPDLQVSAMQHQTVLELTETGVEAAAASAISVARTLLVFEVQQPFLFVLWDQQHKFPVFMGRVYDPRA
B5: C1-esterase inhibitor (C1-INH): S354G (protein)
parent chain: MASRLTLLTLLLLLLAGDRASSNPNATSSSSQDPESLQDRGEGKVATTVISKMLFVEPILEVSSLPTTNSTTNSATKITANTTDEPTTQPTTEPTTQPTIQPTQPTTQLPTDSPTQPTTGSFCPGPVTLCSDLESHSTEAVLGDALVDFSLKLYHAFSAMKKVETNMAFSPFSIASLLTQVLLGAGENTKTNLESILSYPKDFTCVHQALKGFTTKGVTSVSQIFHSPDLAIRDTFVNASRTLYSSSPRVLSNNSDANLELINTWVAKNTNNKISRLLDSLPSDTRLVLLNAIYLSAKWKTTFDPKKTRMEPFHFKNSVIKVPMMNSKKYPVAHFIDQTLKAKVGQLQLSHNLSLVILVPQNLKHRLEDMEQALSPSVFKAIMEKLEMSKFQPTLLTLPRIKVTTSQDMLSIMEKLEFFDFSYDLNLCGLTEDPDLQVSAMQHQTVLELTETGVEAAAASAISVARTLLVFEVQQPFLFVLWDQQHKFPVFMGRVYDPRA
B6: C1-esterase inhibitor (C1-INH): N238A (protein)
parent chain: MASRLTLLTLLLLLLAGDRASSNPNATSSSSQDPESLQDRGEGKVATTVISKMLFVEPILEVSSLPTTNSTTNSATKITANTTDEPTTQPTTEPTTQPTIQPTQPTTQLPTDSPTQPTTGSFCPGPVTLCSDLESHSTEAVLGDALVDFSLKLYHAFSAMKKVETNMAFSPFSIASLLTQVLLGAGENTKTNLESILSYPKDFTCVHQALKGFTTKGVTSVSQIFHSPDLAIRDTFVNASRTLYSSSPRVLSNNSDANLELINTWVAKNTNNKISRLLDSLPSDTRLVLLNAIYLSAKWKTTFDPKKTRMEPFHFKNSVIKVPMMNSKKYPVAHFIDQTLKAKVGQLQLSHNLSLVILVPQNLKHRLEDMEQALSPSVFKAIMEKLEMSKFQPTLLTLPRIKVTTSQDMLSIMEKLEFFDFSYDLNLCGLTEDPDLQVSAMQHQTVLELTETGVEAAAASAISVARTLLVFEVQQPFLFVLWDQQHKFPVFMGRVYDPRA

experiment: ELISA and Western blot of HEK293T supernatants; conditions: glycan lost; control: wild type

expression_or_secretion, percent_of_wt, no change:
B1
B2
B3
B4
B5
B6
